Laboratory results published in patent publication US20240218070A1 (MERUS N V, published 2024).

T1: cynomolgus FAP (cyFAP) expressed on 293FF cells (cynomolgus, UniProt Q12884 1-760 (human entry))
T1 sequence: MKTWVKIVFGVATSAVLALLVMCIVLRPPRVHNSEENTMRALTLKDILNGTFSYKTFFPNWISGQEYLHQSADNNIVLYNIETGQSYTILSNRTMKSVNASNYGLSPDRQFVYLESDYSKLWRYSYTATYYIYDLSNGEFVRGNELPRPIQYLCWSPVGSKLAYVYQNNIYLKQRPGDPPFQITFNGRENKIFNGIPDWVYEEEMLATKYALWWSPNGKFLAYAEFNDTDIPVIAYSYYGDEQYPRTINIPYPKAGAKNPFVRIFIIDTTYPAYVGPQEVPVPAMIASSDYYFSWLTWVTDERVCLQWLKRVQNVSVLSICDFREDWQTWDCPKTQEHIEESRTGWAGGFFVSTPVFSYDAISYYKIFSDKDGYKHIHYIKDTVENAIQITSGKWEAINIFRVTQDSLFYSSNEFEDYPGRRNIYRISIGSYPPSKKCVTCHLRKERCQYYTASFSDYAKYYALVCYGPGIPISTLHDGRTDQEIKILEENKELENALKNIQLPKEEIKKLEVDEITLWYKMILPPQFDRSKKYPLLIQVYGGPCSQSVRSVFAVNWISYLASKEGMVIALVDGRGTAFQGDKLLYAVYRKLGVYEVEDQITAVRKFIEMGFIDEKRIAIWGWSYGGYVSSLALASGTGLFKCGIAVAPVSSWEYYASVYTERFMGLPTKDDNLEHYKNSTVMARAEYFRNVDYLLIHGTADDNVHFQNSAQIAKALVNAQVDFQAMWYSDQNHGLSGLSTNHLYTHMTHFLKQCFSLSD

B1: anti-human FAP bivalent monospecific IgG comprising heavy chain variable region SEQ ID NO: 11 (antibody, V domains shown)
VH: EVQLVESGGGLVQPGGSLRLSCAASGFTFSSYAMIWVRQAPGKGLEWVSAISGSGGYTFNADSVKGRFTMSRDNSKNTLYLQMNSLRAEDTAVYYCAKRDGGYEGGAFDIWGQGTLVTVSS
VL: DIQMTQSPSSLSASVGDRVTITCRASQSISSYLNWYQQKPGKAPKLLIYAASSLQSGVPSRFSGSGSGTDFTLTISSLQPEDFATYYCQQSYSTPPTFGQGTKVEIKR
notes: IgG1 format, common light chain VK1-39/JK1
B2: anti-human FAP bivalent monospecific IgG comprising heavy chain variable region SEQ ID NO: 69 (antibody, V domains shown)
VH: EVQLVETGGGLIQPGGSLRLSCAASGFTVSSNYMSWVRQAPGKGLEWVSVIYSGGSTYYADSVKGRFTISRDNSKNTLYLQMNSLRAEDTAVYYCARGPTDAYPYLDYLWGQGTLVTVSS
VL: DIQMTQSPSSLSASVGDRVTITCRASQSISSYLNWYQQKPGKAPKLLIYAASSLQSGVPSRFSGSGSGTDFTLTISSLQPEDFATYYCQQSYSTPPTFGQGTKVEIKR
notes: IgG1 format, common light chain VK1-39/JK1; also called human/mouse cross-reactive FAP IgG
B3: anti-human FAP bivalent monospecific IgG comprising heavy chain variable region SEQ ID NO: 15 (antibody, V domains shown)
VH: QLQLQESGPGLVKPSETLSLTCTVSGGSISSSSYFWAWIRQPPGKGLEFIGNIYYSGSTYYNPSLKSRVTISVDTSKNQFSLKLSSVTAADTAVYYCARPSYYGSGNYYFAFWGQGTLVTVSS
VL: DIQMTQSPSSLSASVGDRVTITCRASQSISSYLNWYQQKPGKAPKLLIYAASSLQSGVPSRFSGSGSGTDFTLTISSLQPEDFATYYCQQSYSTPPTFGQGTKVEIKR
notes: as for B1
B4: anti-human FAP bivalent monospecific IgG comprising heavy chain variable region SEQ ID NO: 19 (antibody, V domains shown)
VH: EVQLVESGGGLVKPGGSLRLSCAASGFPFNYAWMSWVRQAPGKGLEWVGRIKPKTSGGATDYAAPVKDRFTISRDDSRNTLYLQMNSLKTEDTAVYYCSAREDIWNFFFDLWGQGTLVTVSS
VL: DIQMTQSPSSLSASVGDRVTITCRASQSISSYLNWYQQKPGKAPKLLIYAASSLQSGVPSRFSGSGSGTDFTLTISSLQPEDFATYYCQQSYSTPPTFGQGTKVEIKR
notes: as for B1

What follows are binders tested against T1, cynomolgus FAP (cyFAP) expressed on … (assay: FACS, 293FF cells stably expressing cyFAP, IgG at 2.5 ug/ml).
Description: The binding of all test and control antibodies to the cells was tested at a single concentration of 2.5 ug/ml. Goat-anti-human IgG F(ab)2-PE (Invitrogen, H10104) was used as secondary antibody (1:100 in FACS buffer). Ab0625 was used at 10 ug/ml and its binding was detected using Ab0250 (Becton Dickinson, 550767) (1:100 in FACS buffer). The FACS buffer containing PBS (Gibco, cat. #10010-015), 0.5% BSA (Thermo Scientific, cat. #37525), and 2 mM EDTA (Invitrogen, cat. #15575-020) was kept ice cold throughout the assay.
The target cells were harvested, counted, and centrifuged for 5 min at 300 g at 4 °C. Cells were then resuspended in FACS buffer at a concentration of 1×10⁶ cells/ml and transferred (200,000 cells/well) to a U-bottom 96-well FACS plate (BD, cat. #353910). Cells were then centrifuged for 3 min at 300 g at 4° C. and supernatant was discarded. 50 μl of primary antibody solutions were added to the cells, mixed, and incubated for 30 min at 2-8° C. in the dark. Cells were washed by adding 150 μl FACS buffer and centrifuged for 3 min at 300 g at 4° C. Supernatant was discarded, and cells were washed again by adding 200 μl FACS buffer to the plate. Cells were then centrifuged for 3 min at 300 g at 4° C. and afterwards the supernatant was discarded. 50 μl of secondary antibody solutions were added to the cells, mixed, and incubated for 30 min at 2-8° C. in the dark. Cells were then washed by adding 150 μl FACS buffer to the plate and centrifuged for 3 min at 300 g at 4° ° C. Supernatant was discarded and cells were washed again by adding 200 μl FACS buffer to the plate and centrifuged for 3 min at 300 g at 4° C. Supernatant was discarded and cells were fixated by adding 100 μl/well ice-cold Fixation buffer (2% formaldehyde solution in PBS, Sigma-Aldrich, cat. #47608-250ML-F). Cells were incubated for 15 min on ice in the dark. Afterwards, 100 μl ice-cold PBS was added to the cells and cells were centrifuged for 3 at 300 g at 4° C. Supernatant was discarded and cells were resuspended in 120 μl FACS buffer.

Binder | binding result
B1 | binds
B2 | binds
B3 | binds
B4 | binds
